According to US20080227707A1, “BIOACTIVE PEPTIDES AND UNIQUE IRES ELEMENTS FROM MYELIN PROTEOLIPID PROTEIN PLP/DM20” (WAYNE STATE UNIVERSITY, priority 2002, published 2008):
Peptide text beside a SMILES is read from it. * marks the point of attachment. Cbz = O=C(OCc1ccccc1)*

What was measured:
[1] = tested on: 293, NT2, and 293-Tet-On cell lines; test: Proteasome inhibition assay, MG132-induced cell death; type: cell-based, human; conditions: 50 μM MG132, 24 hrs
Description: Proteasome inhibition assays were carried out in stably transfected cell lines using MG132 (Z-Leu-Leu-Leucinal)—a potent, cell permeable inhibitor of the 26S proteasomal complex (Calbiochem, San Diego, Calif.). The MG132 concentration in all experiments (50 μM) was sufficient to insure 100% cell death of all 293, NT2, and 293-Tet-On cell lines in 24 hrs.
To confirm that 293 and NT2 cultures undergo apoptosis within 24 hrs post treatment with 50 μM MG132, cells were assayed for poly(ADP-ribose) polymerase (PARP) cleavage by caspase-3. The 293 and NT2cultures were grown in 100 mm dishes to ˜90% confluence and passed at equal density into a six well tray. At 70-80% confluence, wells were treated with 50 μM MG132 in DMEM and harvested for proteins at 0.5 hrs, 1 hr, 2 hrs, 4 hrs, 6 hrs, and 24 hrs after treatment. The PARP cleavage products were resolved on 4% SDS PAGE gels. The Western blots were incubated with an anti-PARP (BIOMOL Research Laboratories) primary antibody diluted 1:2000 in 3% BSA, and a HRP conjugated goat anti-mouse secondary antibody (Amersham) diluted 1:2500 in 3% BSA.

human 293 cell line = test: Colony formation assay after transfection and G418 selection; type: cell-based; conditions: 293 cells
Description: Transfections were performed in 100×20 mm dishes using the Profection® Mammalian Transfection System—a calcium phosphate transfection kit (Promega, Madison, Wis.). Cells grown to 50-70% confluence were fed 3 hrs prior to addition of the calcium phosphate/DNA mixture. A standard transfection assay contained 15 μg of plasmid DNA, while double transfections were done with 10 μg of each plasmid (20 μg total). The culture medium was removed 24 hrs post transfection and cells were processed for microscopic analysis or passed for G418 or Hygromycin B selection 48 hrs post transfection.
All constitutive expression cell lines were isolated by selection with the G418 antibiotic. 24 hrs after cell passage (see above), transfected 293 and NT2 cells were treated with 500 μg/mL G418 (Invitrogen Life Technologies) in DMEM. The selection medium was changed every second day for 2-2.5 weeks, during which the majority of cells detach and G418 resistant colonies emerge. Depending upon the number and density of colonies, surviving cells were grown for 3-5 days in G418-free medium prior to subcloning. Once colonies reached the appropriate size, each plate was briefly examined for fluorescence, and colonies with the lowest number of nonfluorescent, contaminating cells were marked for subcloning. […]

293 cells = test: Viability of PIRP expressing cells during MG132-induced cellular stress and apoptosis (Trypan Blue exclusion); type: cell-based, human; conditions: 293 control cells = 100%, not statistically significant, n=2
Description: FIGS. 6A-6C are bar graphs showing growth factor activity associated with the PIRP-M and PIRP-L proteins. […] Colony number was determined after calcium phosphate transfection of 293 cells and G418 selection. The control plasmid was pBSII vector comprising the […] but no mammalian selectable marker. The PLP/DM20-GFP Pro-constructs are missing the CMV promoter and the PLP/DM20-GFP M1L vectors contain the Met^1 mutation and are unable to translate the full-length proteolipid proteins (see description of FIGS. 2B-2C). Increase in colony number following PIRP expression was highly stastically significant (Student's t-test). […] Pools of 293 cells derived from the transfectants (see above) were grown in toxic (50 μM) and subtoxic (25 μM) concentrations of MG132 for 24 hrs. Viable cells were identified using Trypan Blue exclusion. […] Subconfluent 293 cultures were treated with CM for 48 hrs and 72 hrs. Total and viable cell numbers were determined using Trypan Blue exclusion and expressed as % of control (293 cells treated with 293 CM) cell number.
Although PIRP expression increased colony number, the biochemical mechanism of this response has yet to be defined. […] After 24 hrs, viable cells were counted (Trypan Blue exclusion) (FIG. 6B).

Molecule: CC(C)C[C@@H](C=O)NC(=O)[C@H](CC(C)C)NC(=O)[C@H](CC(C)C)NC(=O)OCc1ccccc1 [MG132, Z-Leu-Leu-Leucinal] (Cbz-Leu-Leu-Leu-aldehyde)
- cell death [1]: 100%

Molecule: PIRP-L: ~7 kDa polypeptide translated from Met234 of PLP/DM20 mRNA via IRES; SEQ ID NO:8 (MTFHLFIAAFVGAAATLVSLLTFMIAATYNFAVLKLMGRGTKF; listed as Homo sapiens)
- colony count in PIRP-L transfectants compared to PIRP-M transfectants (human 293 cell line; p=0.02): increased colony count
- cellular viability (viable cell number), % of control cell lines (293 cells; MG132-treated, 25 μM and 50 μM, 24 hrs): small increase in viability
- cellular viability (viable cell number), % of control cell lines (293 cells; untreated cells): not detected

B1: PIRP-M: ~10 kDa polypeptide translated from Met205 of PLP/DM20 mRNA via IRES; SEQ ID NO:6 (protein, listed as Homo sapiens)
chain: MYGVLPWNAFPGKVCGSNLLSICKTAEFQMTFHLFIAAFVGAAATLVSLLTFMIAATYNFAVLKLMGRGTKF
- increase in colony number over controls (human 293 cell line; calcium phosphate transfection, G418 selection, colonies grown 2 weeks, vs pBSII PIRP-M control DNA lacking G418 resistance): 600-700 fold
